Source: PMC7862519

How the values were obtained:
[1] = molecular target: D2N (D2 without his tag) (Geobacillus stearothermophilus T-6) (UniProt B3EYN2); assay: reflectometric porous-silicon aptasensor (real-time EOT); conditions: 1 uM protein, 5'-amino, Selection buffer: 50 mM K2HPO4, 150 mM NaCl, pH 7.4, flow 30 uL/min for 1 h, temperature not stated, elution with 1 M imidazole
[2] = molecular target: D2 (his-tagged domain 2 of extracellular endo-alpha-(1->5)-L-arabinanase 1) (Geobacillus stearothermophilus T-6) (UniProt B3EYN2); assay: as above; conditions: 5'-amino, Selection buffer: 50 mM K2HPO4, 150 mM NaCl, pH 7.4, flow 30 uL/min for 1 h, temperature not stated, elution with 1 M imidazole

Sequence “GCTATGGGTGGTCTGGTTGGGATTGGCCCCGGGAGCTGGC [anti-his tag aptamer 6H7]” has a binding signal (relative dEOT/EOT0 x10^-3) ([1]; PDMS microfluidic, ascribed to non-specific adsorption) of 1.7, a binding signal (relative dEOT/EOT0 x10^-3) ([1]; 3D-printed microfluidic) of 0.8 and a binding signal (relative dEOT/EOT0 x10^-3) ([2]; 0.25 uM protein, 3D-printed microfluidic) of 1.6. It also gave a binding signal (relative dEOT/EOT0 x10^-3) ([2]; 0.5 uM protein, 3D-printed microfluidic, reused sensor) of 2.3, a binding signal (relative dEOT/EOT0 x10^-3) ([2]; 1 uM protein, 3D-printed microfluidic, released by 1 M imidazole) of 4 and a binding signal (relative dEOT/EOT0 x10^-3) ([2]; 1 uM protein, PDMS microfluidic, signal partly non-specific adsorption) of 3.2.
